Target: WNV (strain New York 1999), infectious virus (West Nile virus, strain New York 1999) (UniProt Q9Q6P4)
Experiment: cell-based or functional assay

Tetra pHu-E16 (tetravalent molecule assembled from pHu-E16scFv-CH^1-3 and pHu-E16scFv-CL) (antibody)
EC50, focus reduction neutralization assay (Vero cells): 3 ng/mL

Source: patent US20170275639A1
